T1: human ANGPTL8 peptide (hANGPTL8 peptide, SEQ ID NO: 337) (human)
T1 construct: also called N-terminal region ANGPTL8 peptide
T1 peptide: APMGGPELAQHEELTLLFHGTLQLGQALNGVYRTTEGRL

T2: peptide from the N-terminal coiled-coil region of human ANGPTL3 (hANGPTL3 peptide, SEQ ID NO: 338) (human)
T2 construct: also called hANGPTL3 shift peptide
T2 peptide: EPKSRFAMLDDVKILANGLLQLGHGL

T3: peptide from the N-terminal coiled-coil region of human ANGPTL4 (hANGPTL4 peptide, SEQ ID NO: 339) (human)
T3 peptide: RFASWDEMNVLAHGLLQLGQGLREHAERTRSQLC

T4: human ANGPTL8 expressed with C-terminal mouse IgG2a Fc tag (hANGPTL8-mFc; SEQ ID NO: 340) (human)
T4 construct: also called Angiopoietin-like protein 8
T4 chain: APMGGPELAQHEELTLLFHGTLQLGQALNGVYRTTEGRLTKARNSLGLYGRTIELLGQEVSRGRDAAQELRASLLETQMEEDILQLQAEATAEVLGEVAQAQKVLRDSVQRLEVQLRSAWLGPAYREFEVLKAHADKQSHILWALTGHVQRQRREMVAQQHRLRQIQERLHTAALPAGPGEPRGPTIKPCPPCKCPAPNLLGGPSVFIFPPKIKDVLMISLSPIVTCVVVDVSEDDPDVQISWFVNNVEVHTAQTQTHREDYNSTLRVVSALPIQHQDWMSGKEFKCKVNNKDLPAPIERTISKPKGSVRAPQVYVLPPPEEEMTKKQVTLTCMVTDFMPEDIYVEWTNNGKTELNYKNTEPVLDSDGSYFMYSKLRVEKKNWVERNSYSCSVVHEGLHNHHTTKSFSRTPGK

T5: monkey ANGPTL8 expressed with C-terminal mouse IgG2a Fc tag (MfANGPTL8-mFc; SEQ ID NO: 341) (cynomolgus monkey)
T5 construct: also called cynomolgus monkey ANGPTL8
T5 chain: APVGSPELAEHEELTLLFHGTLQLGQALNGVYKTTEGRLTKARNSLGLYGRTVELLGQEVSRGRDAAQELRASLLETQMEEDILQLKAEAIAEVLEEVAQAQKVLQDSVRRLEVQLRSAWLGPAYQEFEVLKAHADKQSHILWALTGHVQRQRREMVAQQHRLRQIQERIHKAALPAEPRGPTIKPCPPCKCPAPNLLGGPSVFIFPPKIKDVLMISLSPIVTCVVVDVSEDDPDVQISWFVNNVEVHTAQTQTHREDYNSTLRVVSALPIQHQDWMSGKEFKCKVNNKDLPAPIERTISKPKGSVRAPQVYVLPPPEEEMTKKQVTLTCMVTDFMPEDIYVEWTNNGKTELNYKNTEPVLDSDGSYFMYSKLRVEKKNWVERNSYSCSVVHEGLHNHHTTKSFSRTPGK


Tests used:
[1] = biological target: T1, human ANGPTL8 peptide (hANGPTL8 …); assay: SPR, captured mAb, 500 nM peptide, 25C
Protocol: (§1) The assay utilized a format where ANGPTL8 antibodies were captured on the sensor surface and peptides were injected over the antibody surface. Peptides from the N-terminal coiled-coil region of human ANGPTL3 (hANGPTL3 peptide, SEQ ID NO: 338) and human ANGPTL4 (hANGPTL4 peptide, SEQ ID NO: 339) were also included as controls. Also included was a control antibody (H4H268P from US2011/0159015A1) that binds to the ANGPTL4 peptide and a negative isotype control antibody. All binding studies were performed in 10 mM HEPES pH 7.4, 150 mM NaCl, 3 mM EDTA, and 0.05% v/v Surfactant Tween-20 (HBS-ET running buffer) at 25° C. The HCA sensor surface was derivatized via amine coupling to a monoclonal mouse anti-human Fc antibody (GE, # BR-1008-39), and to this surface was captured approximately 1000 RU of each ANGPTL8 antibody or control antibody. Peptide stock solutions were diluted in HBS-ET running buffer to 500 nM and injected over the antibody-captured surfaces for 4 minutes at a flow rate of 30 μL/minute followed by the dissociation of bound peptide in HBS-ET running buffer for 10 minutes.
(§2) Dissociative half-lives (t½) were calculated from kd as: […]

[2] = biological target: T2, peptide from the N-terminal coiled-coil …; assay: SPR, captured mAb, 500 nM peptide, 25C
Protocol: as §1, §2

[3] = biological target: T3, peptide from the N-terminal coiled-coil …; assay: SPR, captured mAb, 500 nM peptide, 25C
Protocol: as §1, §2

[4] = biological target: T6, anti-mFc (AMC) Octet biosensor, blank; assay: BLI Octet, blank AMC sensor, 100 nM mAb, 25C
T6 construct: Sensor without captured protein, used as blank; also called Blank AMC Sensor
Protocol: (§3) Binding of ANGPTL8 antibodies to human and monkey ANGPTL8 proteins was investigated using Bio-layer Interferometry with an Octet HTX biosensor platform (ForteBio, A Division of Pall Life Sciences). All experiments were performed at 25° C. in 10 mM HEPES pH 7.4, 150 mM NaCl, 0.05% v/v Surfactant Tween-20, and 1 mg/ml BSA with the reaction multiwell plate agitated at 1000 rpm. Approximately 1.6 nm of human ANGPTL8 produced with a C-terminal mouse IgG2a Fc tag (hANGPTL8-mFc; SEQ ID NO: 340) or cynomolgus monkey ANGPTL8 produced with a C-terminal mouse IgG2a Fc tag (MfANGPTL8-mFc; SEQ ID NO: 341) was captured onto anti-mFc (AMC) Octet biosensors by submerging the sensors into wells containing 10 μg/mL of each protein for 4 minutes. Under the same conditions a negative control protein with the same mFc tag (hLDLR-mFc) was also coupled to the AMC sensor. All four sensors, […] and one blank, were then submerged into wells containing 100 nM of different ANGPTL8 monoclonal antibodies or an isotype control for 4 minutes.

[5] = biological target: T4, human ANGPTL8 expressed with C-terminal …; assay: BLI Octet, captured antigen, 100 nM mAb, 25C
Protocol: as §3

[6] = biological target: T5, monkey ANGPTL8 expressed with …; assay: BLI Octet, captured antigen, 100 nM mAb, 25C
Protocol: as §3

[7] = biological target: T7, negative control protein with the same mFc tag (hLDLR-mFc) (human; mouse, UniProt P01130 22-788, limits assumed); assay: BLI Octet, captured antigen, 100 nM mAb, 25C
T7 construct: also called Irrelevant control; not shown: mouse IgG2a Fc tag (same mFc tag as hANGPTL8-mFc)
T7 sequence (P01130 22-788 limits assumed): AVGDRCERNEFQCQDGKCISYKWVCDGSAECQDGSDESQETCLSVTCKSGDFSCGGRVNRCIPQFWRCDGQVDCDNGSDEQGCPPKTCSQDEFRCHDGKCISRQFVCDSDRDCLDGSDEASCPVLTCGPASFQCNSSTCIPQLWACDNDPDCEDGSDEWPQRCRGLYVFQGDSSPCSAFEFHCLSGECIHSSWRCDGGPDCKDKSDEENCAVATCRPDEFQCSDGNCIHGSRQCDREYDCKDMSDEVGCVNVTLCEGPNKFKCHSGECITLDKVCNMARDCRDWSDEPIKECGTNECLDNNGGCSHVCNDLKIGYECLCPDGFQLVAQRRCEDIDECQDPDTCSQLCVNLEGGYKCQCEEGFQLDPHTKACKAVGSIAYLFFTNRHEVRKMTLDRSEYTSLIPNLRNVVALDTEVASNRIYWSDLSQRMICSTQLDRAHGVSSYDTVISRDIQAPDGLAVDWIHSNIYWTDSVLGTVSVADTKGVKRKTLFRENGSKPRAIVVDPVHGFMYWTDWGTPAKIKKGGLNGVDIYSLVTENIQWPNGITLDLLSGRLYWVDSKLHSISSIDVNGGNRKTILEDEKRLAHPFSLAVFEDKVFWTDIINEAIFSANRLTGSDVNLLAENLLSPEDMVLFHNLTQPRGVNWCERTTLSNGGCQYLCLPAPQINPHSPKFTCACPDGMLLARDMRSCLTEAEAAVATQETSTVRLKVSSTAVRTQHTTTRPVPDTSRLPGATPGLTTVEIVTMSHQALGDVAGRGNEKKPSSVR
Protocol: as §3

| Binder | 500 nM hANGPTL8 peptide Bound (RU) [1] [RU] | 500 nM hANGPTL3 peptide Bound (RU) [2] [RU] | 500 nM hAngPTL4 peptide Bound (RU) [3] [RU] | mAb Binding Response (nm) [4] [nm] | mAb Binding Response (nm) [5] [nm] | mAb Binding Response (nm) [6] [nm] | mAb Binding Response (nm) [7] [nm] | koff [1] [s⁻¹] | t½ [1] [h] | binding result [1] | binding result [2] | binding result [3] |
| --- | --- | --- | --- | --- | --- | --- | --- | --- | --- | --- | --- | --- |
| H4H15323P (antibody, human IgG4, V domains shown, H4H prefix: human IgG4 Fc) VH: EVQLVESGGGLVQPGGSLRLSCAASGFTFSSYAMTWVRQAPGKGLEWVSAISGSGGSTYYTDSVKGRFTLSRDNSKNTLYLQMNSLRAEDTAVYYCAKSDYSNTIYWYYGMDVWGQGTTVTVSS VL: not shown | 0 | 0 | 0 | 0 | 0.18 | 0.15 | 0 | – | – | no binding (tested: <9 RU at 500 nM peptide) | no binding (tested: <9 RU at 500 nM peptide) | no binding (tested: <9 RU at 500 nM peptide) |
| H4H15319P (antibody, human IgG4, V domains shown, H4H prefix: human IgG4 Fc) VH: EVQLVESGGGVVRPGGSLRLSCAASGFTVDDYDMSWVRQTPGKGLEWISGINWNGGNTGYADSVKGRFIISRDSAKNSLFLQMNSLRAEDTALYHCWGAIGAFDIWGQGTMVTVSS VL: DIVMTQSPLSSPVTLGQPASISCRSSQSLVHSDGGTYLSWLQQRPGQPPRLLIYKIFNRFSGVPDRFSGSGAGTDFTLRISRVEAEDVGVYYCMQTTQFPLTFGGGTKVEIK | 0 | 0 | 0 | 0 | 0.22 | 0.26 | -0.01 | – | – | no binding (tested: <9 RU at 500 nM peptide) | no binding (tested: <9 RU at 500 nM peptide) | no binding (tested: <9 RU at 500 nM peptide) |
| H4H15314P2 (antibody, human IgG4, V domains shown, H4H prefix: human IgG4 Fc) VH: QVQLVQSGAEVKKPGASVKVSCKASGYTFTSYDINWVRQATGQGLEWMGWMNPNGDNTGYAQKFQGRVTMTGDTSISTAYMELSSLRSEDTAVYYCAREGIWGFDPWGQGTLVTVSS VL: DIQMTQSPSSLSASVGDRVTITCRASQDIRNDLGWYQQKPGKAPKRLIYAASSLQSGVPSRFSGSGSGTEFTLTISSLQPEDFATFYCLQHNTFPRTFGQGTKVEIK | 0 | 0 | 1 | 0 | 0.04 | 0.01 | – | – | – | no binding (tested: <9 RU at 500 nM peptide) | no binding (tested: <9 RU at 500 nM peptide) | no binding (tested: <9 RU at 500 nM peptide) |
| H4H15318P (antibody, human IgG4, V domains shown, H4H prefix: human IgG4 Fc) VH: QVQLVESGGGVVQPGRSLRLSCTASGFTFGNFGIHWVRQAPGKGLEWVAVISYDGTDKFYADPVKGRFIISRDNSMNILYLQMNSLRAEDTAVYYCAKDGEMELRGYYYYYGMDVWGQGTTVTVSS VL: DIQMTQSPSSVSASVGDRVTITCRASQGINTWLAWYQQKPGTAPKLLIFAASSLESGVPSRFSGSGFGTDFTLTISSLQSEDLATYFCQQVHSPPYTFGQGTKLEIK | 0 | 0 | 0 | 0.01 | 0.19 | 0.2 | 0.01 | – | – | no binding (tested: <9 RU at 500 nM peptide) | no binding (tested: <9 RU at 500 nM peptide) | no binding (tested: <9 RU at 500 nM peptide) |

Further lines, with some results ahead:

| 500 nM hANGPTL8 peptide Bound (RU) [1] [RU] | 500 nM hANGPTL3 peptide Bound (RU) [2] [RU] | 500 nM hAngPTL4 peptide Bound (RU) [3] [RU] | mAb Binding Response (nm) [4] [nm] | mAb Binding Response (nm) [5] [nm] | mAb Binding Response (nm) [6] [nm] | mAb Binding Response (nm) [7] [nm] | koff [1] [s⁻¹] | t½ [1] [h] | Binder | binding result [1] | binding result [2] | binding result [3] |
| --- | --- | --- | --- | --- | --- | --- | --- | --- | --- | --- | --- | --- |
| 0 | 0 | 0 | 0.02 | 0.13 | 0.08 | – | – | – | H4H15357P2 (antibody, human IgG4, V domains shown, H4H prefix: human IgG4 Fc) VH: EVQLVESGGGLVKPGGSLRLSCTASGFTFGNAWMSWVRQAPGKGLEWVGLIKGKTDGGTTNYAAPVKGRFTISRDDSKNTLYLHLNSLRTEDTALYYCTTDQVELRQYYYYGLDVWGQGTTVTVSS VL: not shown | no binding (tested: <9 RU at 500 nM peptide) | no binding (tested: <9 RU at 500 nM peptide) | no binding (tested: <9 RU at 500 nM peptide) |
| 0 | 0 | 0 | -0.01 | 0.17 | 0.2 | 0 | – | – | H4H15350P2 (antibody, human IgG4, V domains shown, H4H prefix: human IgG4 Fc) VH: EVQLVESGGGLVQPGGSLRLSCAASGFTFSSFRMTWVRQAPGKGLEWVANIKQDGSEKYYVDSVKGRFTISRDNAKNSLYLQMNSLRAEDTAVYYCARGGGIAAYWGQGTLVTVSS VL: not shown | no binding (tested: <9 RU at 500 nM peptide) | no binding (tested: <9 RU at 500 nM peptide) | no binding (tested: <9 RU at 500 nM peptide) |
| 0 | 0 | 0 | 0.02 | 0.05 | 0.03 | – | – | – | H4H15354P2 (antibody, human IgG4, V domains shown, H4H prefix: human IgG4 Fc) VH: QVQLVESGGGVVQPGRSLRLSCTASGFTFNNYGIHWVRQAPGKGLEWVAVISYDGSNKFYAESVRGRFTISRDNSRNTLFLQMISLRGEDSAVYYCAKDRPYYDILTAHYPSDYYFYAMDVWGHGTTVTVSS VL: not shown | no binding (tested: <9 RU at 500 nM peptide) | no binding (tested: <9 RU at 500 nM peptide) | no binding (tested: <9 RU at 500 nM peptide) |
| 37 | 0 | 0 | 0.01 | 0.25 | 0.31 | 0 | 2.03e-05 | 9.5 | H4H15345P (antibody, human IgG4, V domains shown, H4H prefix: human IgG4 Fc) VH: EVQLVESGGGLVQPGGSLRLSCAASGFTFSTYAMSWVRQAPGKGLEWVSVISGSFISTYYADSVKGRFTISRDNSKNTLYLQMTSLRAEDTAVYYCAKNSPFDYWGQGTLVTVSS VL: not shown | – | no binding (tested: <9 RU at 500 nM peptide) | no binding (tested: <9 RU at 500 nM peptide) |
